5 molecules from US20080108135A1 (University of California, published 2008) can be followed below.

Read-outs that look alike come from different tables or passages of the source.

The target in experiment [1] is ErbB2 on tumor cell lines (SKBR3, SK-OV-3, MCF7) (UniProt P04626). The experiment in a line: cell-based or functional assay.
Experiment [2] has the same target. In words: 5.0 × 10^11 phage on about 1.0 × 10^5 SKBR3 cells at 37 C, surface bound phage eluted with low pH glycine, titered on E. coli TG1.
The target is the same in experiment [3].
The target in experiment [4] is T1, ErbB2 (form in the assay not stated) (UniProt P04626 23-1255).
T1 construct: also called c-erbB-2
In words: method not stated.

Experiment [5] addresses T1, ErbB2 (form in the assay not stated). The experiment in a line: competition by flow cytometry, panel 'C1 phage binding': soluble scFv inhibits binding of C1 phage; % of maximal MFI. In general terms: In flow cytometry, cells or beads pass a laser one at a time.

In experiment [1], “C6.5 phage (anti-ErbB2 C6.5 scFv displayed on phage)” showed a Lysed cell fraction (titer of internalized phage), SKBR3 cells of 6.8e+07 phage titer. In experiment [2], this molecule displayed a titer of cell surface bound phage, 1st glycine wash of 1.2e+07 phage titer and a titer of cell surface bound phage, 2nd glycine wash of 5.2e+06 phage titer.

In experiment [1], C6.5cys scFv conjugated to liposomes yielded a Total uptake of scFv-conjugated liposomes by SKBR3 cells of 3.4 and a share of the liposome uptake that was internalized, SKBR3 cells of 70%.

As to irrelevant anti-Botulinum phage (scFv), in experiment [3], the titer of cell surface bound phage, 1st glycine wash was 600000 phage titer and the titer of cell surface bound phage, 2nd glycine wash was 100000 phage titer. This molecule came in with a Lysed cell fraction (titer of internalized phage), SKBR3 cells in experiment [1] of 600000 phage titer.

As to C6.5 diabody phage, in experiment [1], the Lysed cell fraction (titer of internalized phage), SKBR3 cells is 1.7e+07 phage titer and the cells with internalized phage, confocal microscopy, SKBR3 cells was 20 % of cells. In experiment [2], this molecule had a titer of cell surface bound phage, 1st glycine wash of 1.8e+07 phage titer and a titer of cell surface bound phage, 2nd glycine wash of 2.8e+06 phage titer.

B1: F5 scFv (native purified soluble scFv) (scFv, not shown: small tags and cut ends)
scFv: QVQLVESGGGLVQPGGSLRLSCAASGFTFRSYAMSWVRQAPGKGLEWVSAISGRGDNTYYADSVKGRFTISRDNSKNTLYLQMNSLRAEDTAVYYCAKMTSNAFAFDYWGQGTLVTVSSGGGGSGGGGSGGGGSQSVLTQPPSVSGAPGQRVTISCTGSSSNIGAGYGVHWYQQLPGTAPKLLIYGNTNRPSGVPDRFSGFKSGTSASLAITGLQAEDEADYYCQSYDSSLSGWVFGGGTKLTVLG
notes: also called 3TF5; scFv-F5
B1 had a dissociation constant Kd in experiment [4] of 320 nM. For the same molecule, the “IC50 (read off the curve)” value in experiment [5] is ~200 nM.

As a reminder, the Kd is the concentration at which binding is half-saturated. Read a low Kd as higher affinity.
